Columns and labels:
tvMyb1(35-141) T67A = target: T1, tvMyb1(35-141) T67A (Trichomonas vaginalis, UniProt Q58HP2 35-141, T67A); assay: SPR
T1 sequence: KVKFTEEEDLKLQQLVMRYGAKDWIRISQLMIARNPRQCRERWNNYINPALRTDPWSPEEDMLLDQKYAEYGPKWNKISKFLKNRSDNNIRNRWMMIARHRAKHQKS

tvMyb1(35-141) = target: T2, tvMyb1(35-141) (Trichomonas vaginalis, UniProt Q58HP2 35-141); assay: SPR
T2 sequence: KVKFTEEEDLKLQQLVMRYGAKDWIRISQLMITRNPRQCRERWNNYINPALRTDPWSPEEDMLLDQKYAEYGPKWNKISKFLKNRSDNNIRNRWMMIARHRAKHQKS

B1: MRE-1/MRE-2r 16-bp duplex, 5'-biotin (dsDNA)
DNA 1: AAGATAACGATATTTA
DNA 2: TAAATATCGTTATCTT
tvMyb1(35-141) T67A
  binding result: binds
tvMyb1(35-141)
  Kd: 1.24 nM

Source: publication PMC2673439
